The source of these data is PMC10659578, “Mechanism of stepwise electron transfer in six-transmembrane epithelial antigen of the prostate (STEAP) 1 and 2” (eLife, 2023).

The data set deals with the molecule itself. The data set is described as follows: SEC; purified hSTEAP2 on an SRT-3C SEC-300 column in 20 mM HEPES, 150 mM NaCl, 0.01% LMNG; single peak. (In gel filtration, larger molecules generally elute earlier.)

B1: Human six-transmembrane epithelial antigen of the prostate 2 (STEAP2) (natural protein)
chain: MESISMMGSPKSLSETFLPNGINGIKDARKVTVGVIGSGDFAKSLTIRLIRCGYHVVIGSRNPKFASEFFPHVVDVTHHEDALTKTNIIFVAIHREHYTSLWDLRHLLVGKILIDVSNNMRINQYPESNAEYLASLFPDSLIVKGFNVVSAWALQLGPKDASRQVYICSNNIQARQQVIELARQLNFIPIDLGSLSSAREIENLPLRLFTLWRGPVVVAISLATFFFLYSFVRDVIHPYARNQQSDFYKIPIEIVNKTLPIVAITLLSLVYLAGLLAAAYQLYYGTKYRRFPPWLETWLQCRKQLGLLSFFFAMVHVAYSLCLPMRRSERYLFLNMAYQQVHANIENSWNEEEVWRIEMYISFGIMSLGLLSLLAVTSIPSVSNALNWREFSFIQSTLGYVALLISTFHVLIYGWKRAFEEEYYRFYTPPNFVLALVLPSIVILGKIILFLPCISRKLKRIKKGWEKSQFLEEGMGGTIPHVSPERVTVM
notes: N-terminal residues 1-27, residues 332-353 and C-terminal residues 470-490 are unresolved in the map, which implies a 490-residue chain; Homotrimer with heme; The cryo-EM sample was in GDN with FAD and NADP+; Residues of the TEV site may remain at the C-terminus after cleavage; also called hSTEAP2; not shown: His6, C-terminal, cleaved
For B1, the “stoichiometry N” value worked out at 3.

For orientation: stoichiometry N means a count of units in the complex or per binding partner.
